We go through one molecule from paper PMC5845987.

The target of test [1] is CCAAT/enhancer binding protein β (C/EBPβ) (UniProt P17676).
Test [2] shares this target. This is another data set of the same source.

Sequence of UniProt P17676 (P17676 whole entry): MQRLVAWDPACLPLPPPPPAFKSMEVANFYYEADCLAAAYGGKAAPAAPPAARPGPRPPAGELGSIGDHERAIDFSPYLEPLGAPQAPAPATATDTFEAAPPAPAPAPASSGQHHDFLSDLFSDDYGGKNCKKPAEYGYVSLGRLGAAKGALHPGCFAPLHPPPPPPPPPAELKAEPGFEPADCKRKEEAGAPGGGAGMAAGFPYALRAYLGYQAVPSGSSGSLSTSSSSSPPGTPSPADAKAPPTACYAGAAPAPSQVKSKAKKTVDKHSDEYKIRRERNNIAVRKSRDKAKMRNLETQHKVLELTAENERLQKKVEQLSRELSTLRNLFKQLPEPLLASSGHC

B1: HPV8 E2 protein (human papillomavirus type 8 transcription factor E2) (natural protein)
chain: MENLSERFNVLQDQLMNIYEAAEQTLEAQIAHWLLLRKEAVLLYFARQKGITRIGYQPVPPLAVSEAKAKQAIGIMLQLQSLQKSEFADEPWTLVDTSIETYKNAPENHFKKGATPVEVIYDKQPDNANVYTMWKHIYYTDADDKWHKTTSGVNQTGIYYMQGSFRHYYVVFADDARRYSATGEWEVKINKDTVFAPVTSSTPPGSPPGQADTDTAAKTPTTSADSTSRQQRSPAKQPQQTETKGRRYGRRPSSRTRPQKEQRRSRSRHRTRSRSRSLSRVRAVGSTTVSRSRSSSLTKAVRPRSRSRSRGRATATSRRRAGRGSPRRRRSTSRSPSTNTFKRSQRGGGRRGRGRGSRGRRERSSSTSPTPTKRSRGESSRLRGVSPSEVGRSVQSVSAKHTGRLGRLLDEAIDPPVILVRGEANTLKCFRNRARVRYRGLFKYFSTTWSWVAGDSTERLGRSRMLILFTSAGQRKDFDETVKYPKGVDTSYGNLDSL
For the molecule B1, the murine S100A8 promoter luciferase reporter activity in RTS3b cells co-transfected with 0.005 μg C/EBPβ and 0.005, 0.04 or 0.2 μg HPV8 E2 expression vector (control set at 1) in test [1] is 7 fold. Further, in test [2], the endogenous S100A8 mRNA (qRT-PCR) in RTS3b cells co-transfected with HPV8 E2 and C/EBPβ: enhancement of C/EBPβ-mediated induction is more than 25 fold; the endogenous S100A8 protein level (Western blot quantification) in RTS3b cells co-transfected with HPV8 E2 and C/EBPβ stood at 90 fold; the endogenous S100A9 mRNA (qRT-PCR) in RTS3b cells co-transfected with HPV8 E2 and C/EBPβ: enhancement of C/EBPβ-mediated induction was determined as 6 fold; the endogenous S100A9 protein level (Western blot quantification) in RTS3b cells co-transfected with HPV8 E2 and C/EBPβ was determined as 31 fold.
